# From patent publication US20250179197A1
# How the values were obtained:
# [1] = molecular target: T1, IL-18 receptor (IL-18Rα and IL-18Rβ) on HEK-Blue IL-18 cells (UniProt Q13478); assay: cell-based or functional assay
# T1 sequence (looked up) 1: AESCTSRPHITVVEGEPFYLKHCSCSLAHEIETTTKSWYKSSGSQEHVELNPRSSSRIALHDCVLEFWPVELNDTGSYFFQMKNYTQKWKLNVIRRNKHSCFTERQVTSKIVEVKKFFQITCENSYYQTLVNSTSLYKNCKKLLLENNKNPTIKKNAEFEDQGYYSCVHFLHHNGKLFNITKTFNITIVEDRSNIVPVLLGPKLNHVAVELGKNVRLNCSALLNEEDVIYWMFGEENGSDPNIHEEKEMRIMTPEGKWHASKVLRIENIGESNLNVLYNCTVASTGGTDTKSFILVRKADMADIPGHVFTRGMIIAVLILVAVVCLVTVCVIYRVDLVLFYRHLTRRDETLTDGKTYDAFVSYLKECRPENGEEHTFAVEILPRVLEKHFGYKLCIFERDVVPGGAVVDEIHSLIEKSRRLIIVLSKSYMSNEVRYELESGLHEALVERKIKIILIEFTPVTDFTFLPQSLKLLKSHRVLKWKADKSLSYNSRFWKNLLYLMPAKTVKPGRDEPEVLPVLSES
# T1 sequence (looked up) 2: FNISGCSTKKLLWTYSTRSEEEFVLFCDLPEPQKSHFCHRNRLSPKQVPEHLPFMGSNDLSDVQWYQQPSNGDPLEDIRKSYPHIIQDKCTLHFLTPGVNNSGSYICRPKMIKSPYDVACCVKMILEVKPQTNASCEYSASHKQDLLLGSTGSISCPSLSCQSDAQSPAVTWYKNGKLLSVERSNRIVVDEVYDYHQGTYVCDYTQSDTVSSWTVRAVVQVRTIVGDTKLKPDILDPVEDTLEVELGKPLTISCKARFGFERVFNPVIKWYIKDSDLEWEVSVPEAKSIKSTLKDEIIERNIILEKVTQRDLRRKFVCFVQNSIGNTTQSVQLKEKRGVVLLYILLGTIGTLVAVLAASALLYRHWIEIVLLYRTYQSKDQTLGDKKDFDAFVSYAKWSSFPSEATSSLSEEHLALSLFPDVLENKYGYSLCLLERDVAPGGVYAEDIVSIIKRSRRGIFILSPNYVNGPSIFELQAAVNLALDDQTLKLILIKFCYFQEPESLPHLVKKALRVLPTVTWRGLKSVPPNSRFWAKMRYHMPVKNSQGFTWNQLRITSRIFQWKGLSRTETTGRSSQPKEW
# [2] = molecular target: T2, IL-18 receptor (IL-18Rα/IL-18Rβ) on human PBMCs (human) (UniProt Q13478); assay: cell-based or functional assay
# T2 sequence (looked up) 1: T1 sequence (looked up) 1
# T2 sequence (looked up) 2: T1 sequence (looked up) 2
# Human IL-18, sequence (Q14116 37-193 limits assumed): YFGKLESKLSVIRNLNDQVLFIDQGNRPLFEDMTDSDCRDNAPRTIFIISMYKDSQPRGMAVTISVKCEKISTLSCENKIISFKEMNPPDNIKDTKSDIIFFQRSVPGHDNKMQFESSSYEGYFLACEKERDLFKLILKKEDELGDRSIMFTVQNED
substance,measurement,setting,value
Human IL-18 (from UniProt Q14116 37-193) (ligand),HEK-Blue: Abs 405 at 100 nM,[1],2.6 absorbance
same,HEK-Blue: Fold over background,[1],14.4 fold
same,"Calculated maximum induction of IFN-γ after 24 hours, donor 1",[2],42000
same,"Calculated maximum induction of IFN-γ after 24 hours, donor 2",[2],5300
same,"Calculated maximum induction of IFN-γ after 24 hours, donor 3",[2],89000
same,"Calculated maximum induction of IFN-γ after 24 hours, donor 4",[2],69000
same,"Calculated maximum induction of IFN-γ after 24 hours, donor 5",[2],150000
same,"Calculated maximum induction of IFN-γ after 24 hours, donor 6",[2],28000
